This is an account of results in the nanobody polyreactivity screen of Harvey et al. (2022).

The nature of the data set: yeast display, Sf9 membrane polyspecificity reagent, FACS + sequencing; frameworks hold sequencing errors. The essentials:
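Synthetic nanobody libraries on Saccharomyces cerevisiae BJ5465 were galactose-induced for 36–48 hours, stained 1 hour at 4 °C with 10% biotinylated, detergent-solubilized Sf9 membrane reagent and enriched on streptavidin microbeads. FACS then separated cells into low and high (top ~1%) gates by anti-HA (expression) and streptavidin (reagent binding) fluorescence. Genes were colony-PCR amplified, MiSeq 2 × 250 sequenced and CDR-length filtered. A clone's polyreactivity label is that of its gate of origin.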
Regarding “QVQLVESGGGLVQAGGSLRLSCAASGSTFQVYGMGWYRQAPGKERELVAAISRSGGRTYYADSVKGRFTISRDNAKNTVYLQMNSLKPEDTAVYYCAKTYQTTTSKSGYYYWGQGTQVTVSS”, the “polyreactivity (PSR sort gate)” value is “high polyreactivity”.
To “QVQLVESGGGLVQAGGSLRLSCAASGSTFQWYAIGWYRQAPGKERELVATISYTGGSRTYYADSVKGRFTISRDNAKNTVYLQMNILKPEDTAVYYCAAESNQLFYFRRFDYWGQGTQVTVSS” belongs “low polyreactivity”; to “QVQLVESGGGLVQAGGSLRLSCAASGSTFQYNAMGWYRQAPGKERELVATITWSGGSTYYADSVKGRFTISRDNAKNTVYLQMNSLKPEDTAVYYCAADYYYGYEFGYWGQGTKVTVSS”, “low polyreactivity”.
For “QVQLVESGGGLVQAGGSLRLSCAASGSTFQYNVMGWYRQAPGKERELVATISYSSGRTYYADSVKGRFTISRDNAKNTVYLQMNSLKPEDTAVYYCAAAVRLYFWTSAYKYGYWGQGTQVTVSS”, the “polyreactivity (PSR sort gate)” value is “high polyreactivity”.
To “QVQLVESGGGLVQAGGSLRLSCAASGSTFQYYAMGWYRPAPGKERELVAAISSGGSTYYADSVMGRFTISRDNAKNTVYLQMNSLKPEDNAVYYCAAYDYDGVYGYCGQGTQVTVSS” belongs “high polyreactivity”; to “QVQLVESGGGLVQAGGSLRLSCAASGSTFQYYAMGWYRQAPGKEREFVAAIHWDGGRTYYADSVKGRFTISRDNAKNTVYLQMNSLKPEDTAVYYCAAYTRYKMDYWGQGTQVTVSS”, “high polyreactivity”.
The result for “QVQLVESGGGLVQAGGSLRLSCAASGSTFQYYAMGWYRQAPGKERELFAVITGAGGTNYADSVKGRFTISRDNAKNTVYLQMNSLKPEDTAVYYCAARSPGTRWGDYDYWGQGTQVTVSS” reads “low polyreactivity”; that for “QVQLVESGGGLVQAGGSLRLSCAASGSTFQYYAMGWYRQAPGKERELVAAISAGGTRTYYADSVKGRFTISRDNAKNTVYLQMNSLKPEDPAVYYCNADDLHFVARYDYWGQGTQVTVSS”, “low polyreactivity”.
The result for “QVQLVESGGGLVQAGGSLRLSCAASGSTFQYYAMGWYRQAPGKERELVAAISYRGSTYYADSVKGRFTISRDNAKNTVYLQMNSLKPEDTAVYYCAAVNRPWYSFGYGYWGQGTQVTVSS” reads “high polyreactivity”; that for “QVQLVESGGGLVQAGGSLRLSCAASGSTFQYYAMGWYRQAPGKERELVASITWGGDNTDYADSVKGRFTISRDNAKNTVYLQMNSLKPEDTAVYYCNTVRSNKMDYWGQGTQVTVSS”, “high polyreactivity”; that for “QVQLVESGGGLVQAGGSLRLSCAASGSTFQYYDMGWYRQAPGKERELVASITGSGDSTYYADSVKGRFTISRDNAKNTVYLQMNSLKPEDTAVYYCAAQNTWSGDYDYWGQGTQVTVSS”, “low polyreactivity”.
Turning to “QVQLVESGGGLVQAGGSLRLSCAASGSTFRDNAMGWYRQAPGKERELVAAISRSGARTYYADSVKGRFTISRDNAKNTVYLQMNSLKPEDTAVYYCNAVWRVKYRRGLDYWGQGTQVTVSS”, the “polyreactivity (PSR sort gate)” value was “high polyreactivity”.
As for “QVQLVESGGGLVQAGGSLRLSCAASGSTFRDYAMGWYRQAPGKERELVAAISNSGGRTYYADSVKGRFTISRDNAKNTVYLQMNSLKPEDTAVYYCNAGRQTKWGQGTQVTVSS”, the “polyreactivity (PSR sort gate)” value is recorded as “high polyreactivity”.
As to “QVQLVESGGGLVQAGGSLRLSCAASGSTFRDYAMGWYRQAPGKERELVAAITQNGGSTYYADSVKGRFTISRDNAKNSVYLQMNSLKPEDTAVYDCAADSDWFVWQEDYWGQGTQVTVSS”, the “polyreactivity (PSR sort gate)” value was “low polyreactivity”.
Turning to “QVQLVESGGGLVQAGGSLRLSCAASGSTFREYTMGWYRQAPGKERELVAAITNSGGSTYYADSVKGRFTISRDNAKNTVYLQLNSLKPEDTAVYYCAAEVGIVDYDYWGQGTQVTVSS”, the “polyreactivity (PSR sort gate)” value was “low polyreactivity”.
Consider “QVQLVESGGGLVQAGGSLRLSCAASGSTFRFYAMGWYRQAPGKERELVAAITWRSGRTSYADSVKGRFTISRDNAKNTVYLQMNSLKPDDTAVYYCAATSVYRYDYWGQGTLVTVSS”, for which the “polyreactivity (PSR sort gate)” value was “high polyreactivity”.
For the sequence “QVQLVESGGGLVQAGGSLRLSCAASGSTFRFYAMGWYRQAPGKERELVAGITGSGDSTYYADSVKGRFTISRDNAKNTVYLQMNSLKPEDTAVYYCNKRVVYRSSQFDYWGQGTQVTVSS”, the “polyreactivity (PSR sort gate)” value is on record as “low polyreactivity”.
The result for “QVQLVESGGGLVQAGGSLRLSCAASGSTFRFYTMGWYRPAPGKERELVATISRGGSTYADSVKGRFTISRDNAKNTVYLQMYSLKPEDTAVYYCAKRGYSSWPYDYWGQGTQVSVSS” reads “low polyreactivity”.
The result for “QVQLVESGGGLVQAGGSLRLSCAASGSTFRGFAMGWYRQAPGKERELVAAISSRGASTHYADSVKGRFTISRDNANNTVYLQLTSLKPEDTAVYYCNKRQVFVSTGVYEFDYWGQGTQVTVSS” reads “low polyreactivity”; that for “QVQLVESGGGLVQAGGSLRLSCAASGSTFRGNAMGWYRQAPGKERELVAAITGRGGRTYYADSVKGRFTISRDNAKNTVYLQMNSLKPEDTAVYYCAAYSRYKPYGITAYDYWGQGTQVTVSS”, “high polyreactivity”.
To “QVQLVESGGGLVQAGGSLRLSCAASGSTFRGNAMGWYRQAPGKERELVASITGGGSTNYADSVKGRFTISRDNAKNTVYLQMNSLKPEDTAVYYCAADWGADFYGGQGTQVTVSS” belongs “low polyreactivity”.
Turning to “QVQLVESGGGLVQAGGSLRLSCAASGSTFRGYAMGWYRQAPGKERELVAAITRGGSTYYADSVKGRFTISRDNAKNTVYLQMNSLKPEDTAVYYFYDYWGQGTQVTVSS”, the “polyreactivity (PSR sort gate)” value was “low polyreactivity”.
Regarding “QVQLVESGGGLVQAGGSLRLSCAASGSTFRGYAMGWYRQAPGKERELVAAITRSGGSTYYADSVKGRFTISRDNAKNTVYLQMNSLKPEDTAVYYCNDRAFPYYRRFDYWGQGTQVTVSS”, the “polyreactivity (PSR sort gate)” value is on record as “high polyreactivity”.
The result for “QVQLVESGGGLVQAGGSLRLSCAASGSTFRGYAMGWYRQAPGKERELVAAITYISDSTYYADSVKGRFTLSRDNAKNTVYLQMNSLKPEDTAVYYCNAYYDGDWRYTSQETGDHWGQGTQVTVSS” reads “low polyreactivity”.
In the case of “QVQLVESGGGLVQAGGSLRLSCAASGSTFRGYAMGWYRQAPGKERELVASISWNGTSTYYADSVKGRFTISRDNAKNTVYLQMNSLKPEDTAVYYCNVRFNYRGTYDYWGQGTQVTVSS”, the “polyreactivity (PSR sort gate)” value is reported as “low polyreactivity”.
The result for “QVQLVESGGGLVQAGGSLRLSCAASGSTFRGYDMGWYRQAPGKERELVAAITTSGGTTYYADSVKGRFTISRDNAKNTVYLQMNSLKPEDTAVYYCAARYPRAGVPRRPTAYVRYGYWGQGTQVTVSS” reads “high polyreactivity”; that for “QVQLVESGGGLVQAGGSLRLSCAASGSTFRGYVMGWYRQAPGKERELVAAISSGGRTYYADSVKGRFTISRDNAKNTVYLQMNSLKPEDTAVYYCNSNGRDVYYNWAYDYWGQGTQVTVSS”, “high polyreactivity”; that for “QVQLVESGGGLVQAGGSLRLSCAASGSTFRHNAMGWYRQGPGKERELVATIRTSGGTTYYADSVKGRFTISRDNAKNTVYLQMNSLKPEDTAVYYCAAVSYLFLYQGYPIAYPMYYWGQGTQVTVSS”, “low polyreactivity”.
For the sequence “QVQLVESGGGLVQAGGSLRLSCAASGSTFRINAMGWYRQAPGKERELVADINSGGNTTYADSVKGRFTISRDNAKNTVYFQMNSLKPEDTAVYYCAAAPVFDLWVFLLDYGYDYWGQGTQVTVSS”, the “polyreactivity (PSR sort gate)” value is recorded as “low polyreactivity”.
As to “QVQLVESGGGLVQAGGSLRLSCAASGSTFRINAMGWYRQAPGKERELVADINSGGNTTYADSVKGRFTISRDNAKNTVYLQMNSLKPEDTAVYYCAADPVFDLWEFLLDYGYDYWGQGTQVTVSS”, the “polyreactivity (PSR sort gate)” value is listed as “low polyreactivity”.
The result for “QVQLVESGGGLVQAGGSLRLSCAASGSTFRIYAMGLYRQAPGKERELVAAIRRSGGSTYYADSVKGRFTISRDNAKNTVYLQMNSLKPEDTAVYYCAADLYYQAPGYQDRYRHSRYEYWGQGTQVTVSS” reads “high polyreactivity”; that for “QVQLVESGGGLVQAGGSLRLSCAASGSTFRKDAMGWYRQAPGKERELVAAISSSGGDTYYADSVKGRFTISRDNAKNTVYLQMNSLKPEDTAVYYCNTKRPYRVYFRYGYWGQGTQVTVSS”, “high polyreactivity”; that for “QVQLVESGGGLVQAGGSLRLSCAASGSTFRKNAMGWYRQAPGKERELVAAITYSGGGTYYADSVKGRFTISRDNAKNTVYLQMNSLKPEDTAVYYCAAERNKYAPYYYWGQGTQVTVSS”, “high polyreactivity”.
The result for “QVQLVESGGGLVQAGGSLRLSCAASGSTFRKYAMGWYRQAPGTEREFVAAITWSTGTTYYADSVKGRFTISRDNAKNTVYLQMNSLKPEDTAVYYCAADSQPPHELYESIEHESWGQGTQVTVSS” reads “low polyreactivity”.
“QVQLVESGGGLVQAGGSLRLSCAASGSTFRKYVMGWYRQAPGKERELDAGITSRGGSTYYADSVKGRFTISRDNAKNTVYLQMNSLKPEDSAVYYCAKRAYGTALYRGYGYWGQGTQVPVSS”: the “polyreactivity (PSR sort gate)” value is recorded as “low polyreactivity”.
To “QVQLVESGGGLVQAGGSLRLSCAASGSTFRLNAMGWYRQAPGKERELVAAISRSTGTTHYADSVKGRFTISRDNAKNTVYLQMNSLKPEDTAVYYCATDRAKWHKNGDLGYWGQGTQVTVSS” belongs “low polyreactivity”; to “QVQLVESGGGLVQAGGSLRLSCAASGSTFRLNAMGWYRQAPGKERELVAAISWTGGSTYYADSVKGRFTISRDNAKNTVYLQMNSLKPEDTAVYYCAADWWQGTSHYWGGAYNYWGQGTQVTVSS”, “low polyreactivity”.
To “QVQLVESGGGLVQAGGSLRLSCAASGSTFRLYAMGCYRPAPGKERELVAVISRSGGRTYADSVKGRFTISRDNAKNTVYLQMNSLKPEDTAVYYCAKARHKSPTYTHDSWGQGTQVTVSS” belongs “high polyreactivity”; to “QVQLVESGGGLVQAGGSLRLSCAASGSTFRLYAMGWYRQAPGKERELVAAISSRGGTTYYADSVKGRFTISRDNAKNTVYLQMNSLKPEDTAVYYCAAPRASQYGDDYWGHGTQVTVSS”, “high polyreactivity”; to “QVQLVESGGGLVQAGGSLRLSCAASGSTFRLYAMGWYRQAPGKERELVAVISRSGGRTYADSVKGRFTISRDNAKNTVYLQMNSLKPEDTAVYYCAKARHKSPTYTHDSWGQGTQVTVSS”, “high polyreactivity”.
For the sequence “QVQLVESGGGLVQAGGSLRLSCAASGSTFRNYAMGWSRQAPGKERELVAAISGSGGRTKYADSVKGRFTISRDNAKNTVYLQMNSLKPEDTAVYYWNARFPDWALSEISHSTTYGLWGQGTLVTVSS”, the “polyreactivity (PSR sort gate)” value was “low polyreactivity”.
